{
  "source": "paper PMC4538822",
  "about": "“Ribosomal protein L10(L12)4 autoregulates expression of the Bacillus subtilis rplJL operon by a transcription attenuation mechanism”",
  "binders": {"B1": {"name": "rplJL leader RNA +13 to +118 (structured_RNA)", "RNA": "AAUAUCAUUUAUACCGUAGACAGUAGGGGCCUAACCGCUUAAUUAUCCUACCGAGGUGUAUAUUAUCACAGCUAUUACGUUACGUAUGCUUGUAUAUACAGCCUCC"}, "B2": {"name": "rplJL leader RNA +13 to +76 (3' boundary, bound) (structured_RNA)", "RNA": "AAUAUCAUUUAUACCGUAGACAGUAGGGGCCUAACCGCUUAAUUAUCCUACCGAGGUGUAUAUU"}},
  "key": {"[1]": {"target": "T1, L10(L12)4 complex (ribosomal proteins L10 and L12) (Bacillus subtilis (source strain of the …, UniProt P42923;P02394 1-166;1-123))", "T1 sequence 1": "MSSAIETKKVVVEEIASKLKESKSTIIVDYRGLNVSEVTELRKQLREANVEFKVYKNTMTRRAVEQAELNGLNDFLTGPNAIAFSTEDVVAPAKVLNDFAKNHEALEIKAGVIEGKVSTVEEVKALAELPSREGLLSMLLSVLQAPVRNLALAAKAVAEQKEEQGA", "T1 sequence 2": "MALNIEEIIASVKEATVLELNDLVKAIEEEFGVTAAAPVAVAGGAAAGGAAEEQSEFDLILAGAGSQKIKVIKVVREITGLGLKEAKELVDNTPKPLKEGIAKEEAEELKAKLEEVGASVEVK", "assay": "filter binding; 3 mM Mg2+; yeast RNA competitor 0.2 mg/ml; apparent Kd; Filter binding: 30 mM Tris-HCl pH 7.6, 175 mM KCl, 3 mM MgCl2, 10% glycerol, 0.2 mg/ml yeast RNA, 50 ug/ml BSA, 0.01 nM RNA, 37 C 30 min; in-line probing: 50 mM Tris-HCl pH 8.3, 20 mM MgCl2, 100 mM KCl, 15% glycerol, 25 C 40 h; boundary: 37 C 30 min", "conditions": "protein: recombinant; tags: N-terminal His6 on L10; L12 native; copies: 1;4; label: 5' 32P; anti-antiterminator (AAT) structure with kink-turn"}, "[2]": {"target": "T1, L10(L12)4 complex (ribosomal proteins …)", "assay": "3' boundary analysis (native gel EMSA); 1 or 3 uM L10(L12)4; Filter binding: 30 mM Tris-HCl pH 7.6, 175 mM KCl, 3 mM MgCl2, 10% glycerol, 0.2 mg/ml yeast RNA, 50 ug/ml BSA, 0.01 nM RNA, 37 C 30 min; in-line probing: 50 mM Tris-HCl pH 8.3, 20 mM MgCl2, 100 mM KCl, 15% glycerol, 25 C 40 h; boundary: 37 C 30 min", "conditions": "protein: recombinant, tags: N-terminal His6 on L10, copies: 1;4, label: 5' 32P, AAT structure complete (3' end of AAT at +72)"}},
  "data": [
    {"binder": "B1", "values": [
      {"measurement": "Kd", "setting": "[1]", "result": "0.033 ± 0.01", "unit": "µM"}
    ]},
    {"binder": "B2", "values": [
      {"measurement": "binding result", "setting": "[2]", "result": "binds"}
    ]}
  ]
}
